{"source": "patent US20180179276A1", "about": "(NEURIMMUNE, published 2018)", "target": "pathological Aβ deposits in a human brain with Alzheimer's disease (human, UniProt P05067 672-713)", "sequence (P05067 672-713)": "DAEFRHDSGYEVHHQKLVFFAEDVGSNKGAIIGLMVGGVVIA", "experiment": "not described (human Alzheimer brain tissue)", "data": [{"binder": "antibody NI-203.26C11 (constant region as tested not stated) (antibody, V domains shown, also called anti-hIAPP antibody) VH: QVQLQESGPGLVKPSQTLSLTCTVSGGSISSGNYYWTWIRQPAGKGLEWIGHIYSSGTTNYNPSLESRVTISVDTSKNQFSLSLNSVTAADTAVYYCARPLATVPDAFNIWGQGTMVTVSS VL: not shown", "values": [{"measurement": "binding result", "value": "no binding"}]}]}
